Source: patent US6048719

System: DraIII restriction endonuclease (R.DraIII) (Deinococcus radiophilus)
Assay: cleavage_in_vitro
Conditions: Source-15Q fraction 11; DraIII activity assayed on lambda DNA

## lambda DNA
  activity: 121000 u/ml
